Data: US11278600B2, “Human alpha-galactosidase variants” (Codexis, Inc., priority 2014, dated 2022)

How the values were obtained:
Format in all cases: biochemical
[1] = HTP-analysis of yeast culture supernatants, no challenge (MUGal hydrolysis); details: activity of the variant/activity of WT GLA (SEQ ID NO: 5), yeast supernatant
Procedure: (§1) Yeast (INVSc1) cells transformed with vectors expressing GLA and GLA variants using the lithium acetate method were selected on SD-Ura agar plates. After 72 h incubation at 30° C. colonies were placed into the wells of Axygen® 1.1 ml 96-well deep well plates filled with 200 μl/well SD-Ura broth (2 g/L SD-Ura, 6.8 g/L yeast nitrogen base without amino acids [Sigma Aldrich]), 3.06 g/L sodium dihydrogen phosphate, 0.804 g/L disodium hydrogen phosphate, pH 6.0 supplemented with 6% glucose. The cells were allowed to grow for 20-24 hours in a Kuhner shaker (250 rpm, 30° C., and 85% relative humidity). Overnight culture samples (20 μL) were transferred into Corning Costar® 96-well deep plates filled with 380 µL of SD-ura broth supplemented with 2% glucose. The plates were incubated for 66-84 h in a Kuhner shaker (250 rpm, 30° C., and 85% relative humidity). The cells were then pelleted (4000 rpm×20 min), and the supernatants isolated and stored at 4° C. prior to analysis.
GLA variant activity was determined by measuring the hydrolysis of 4-methylumbelliferyl α-D-galactopyranoside (MUGal). For this assay, 5-50 μL, of yeast culture supernatant produced as described above, was mixed with 0-45 μL, of McIlvaine Buffer (McIlvaine, J. Biol. Chem., 49:183-186 [1921]), pH 4.8 and 50 μL of 2 mM MUGal in 50 mM citrate, 200 mM KCl, pH 4.6 in a 96-well, black, opaque bottom plate. The reactions were mixed briefly and incubated at 37° C. for 30-180 minutes, prior to quenching with 100 μL, of 1 M sodium carbonate. Hydrolysis was analyzed using a SpectraMax® M2 microplate reader monitoring fluorescence (Ex. 355 nm, Em. 448 nm).

[2] = HTP-analysis of supernatants pretreated with acid (MUGal hydrolysis); details: challenge at pH 4.3; activity of the variant/activity of WT GLA (SEQ ID NO: 5); yeast supernatant
Procedure: as §1
GLA variants were challenged with acidic buffer to simulate the extreme pHs that the variants may encounter in lysosomes. First, 50 μL of yeast culture supernatant and 50 uL of McIlvaine buffer (pH 3.3-4.3) were added to the wells of a 96-well round bottom plate. The plates were sealed with a PlateLoc Thermal Microplate Sealer (Agilent) and incubated at 37° C. for 1-3 h. For the assay, 10-50 uL of acid-pH-challenged sample was mixed with 0-40 μL, of McIlvaine buffer pH 4.8, 25 μL, of 1 M citrate buffer pH 4.3 and 25 μL, of 4 mM MUGal in McIlvaine buffer pH 4.8. The reactions were mixed briefly and incubated at 37° C. for 30-180 minutes, prior to quenching with 100 μL, of 1 M sodium carbonate. Hydrolysis was analyzed using a SpectraMax® M2 microplate reader monitoring fluorescence (Ex. 355 nm, Em. 448 nm).

[3] = HTP-analysis of supernatants pretreated with base (MUGal hydrolysis); details: challenge at pH 7.0; activity of the variant/activity of WT GLA (SEQ ID NO: 5); yeast supernatant
Procedure: as §1
GLA variants were challenged with basic (neutral) buffer to simulate the pHs that the variants encounter in the blood following their administration to a patient. First, 50 μL of yeast culture supernatant and 50 uL of McIlvaine buffer (pH 7.0-8.2) or 200 mM sodium bicarbonate (pH 9.1-9.7) were added to the wells of a 96-well round bottom plate. The plates were sealed and incubated at 37° C. for 1-18 h. For the assay, 10-50 μL of basic-pH-challenged sample was mixed with 0-40 μL, of McIlvaine buffer pH 4.8, 25 μL, of 1 M citrate buffer pH 4.3 and 25 μL, of 4 mM MUGal in McIlvaine buffer pH 4.8. The reactions were mixed briefly and incubated at 37° C. for 30-180 minutes, prior to quenching with 100 μL, of 1 M sodium carbonate. Hydrolysis was analyzed using a SpectraMax® M2 microplate reader monitoring fluorescence (Ex. 355 nm, Em. 448 nm).

B1: 16 (protein)
chain: LDNGLARTPTMGWLHWERFMCNLDCQEEPDSCISEKLFMEMAELMVSDGWKDAGYEYLCIDDCWMAPQRDSEGRLQADPQRFPHGIRQLANYVHSKGLKLGIYADVGNKTCAGFPGSFGYYDIDAQTFADWGVDLLKFDGCYCDSLENLADGYKHMSLALNRTGRSIVYSCEWPLYMWPFQKPNYTEIRQYCNHWRNFADIDDSWKSIKSILDWTSFNQERIVDVAGPGGWNDPDMLVIGNFGLSWNQQVTQMALWAIMAAPLFMSNDLRHISPQAKALLQDKDVIAINQDPLGKQGYQLRQGDNFEVWERPLSGLAWAVAMINRQEIGGPRSYTIAVASLGKGVACNPACFITQLLPVKRKLGFYEWTSRLKSHVNPTGTVLLQLENTMQMSLKDLLL
modifications: Synthetic Polypeptide sequence of Variant No. 16 of mature Human GLA
Relative Activity of GLA Variants After No Challenge (NC) [1]: + (+ = 0.5 to 1.5 relative activity over WT GLA (SEQ ID NO: 5)) | Relative Activity of GLA Variants After Challenge at pH 4.3 [2]: ++ (++ = >1.5 to 2.5 relative activity over WT GLA (SEQ ID NO: 5)) | Relative Activity of GLA Variants After Challenge at pH 7.0 [3]: + (+ = 0.5 to 1.5 relative activity over WT GLA (SEQ ID NO: 5))

B2: 21 (protein)
chain: LDNGLARTPTMGWLHWERFMCNLDCQEEPDSCISEKLFMEMAELMVSEGWKDAGYEYLCIDDCWMAPQRDSEGRLQADPQRFPHGIRQLANYVHSKGLKLGIYADVGNKTCAGFPGSFGYYDIDAQTFADWGVDLLKFDGCYCDSLENLADGYKHMSLALNRTGRSIVYSCEWPLYMWPFQKPNYTEIRQYCNHWRNFADIDDSWKSVKSILDWTSFNQERIVDVAGPGGWNDPDMLVIGNFGLSWDQQVTQMALWAIMAAPLFMSNDLRHISPQAKALLQDKDVIAINQDPLGKQGYQLRQGDNFEVWERPLSGLAWAVAMINRQEIGGPRSYTIAVASLGKGVACNPACFITQLLPVKRKLGFYEWTSRLKSHVNPTGTVLLQLENTMQMSLKDLLL
modifications: Synthetic Polypeptide sequence of Variant No. 21 of mature Human GLA
Relative Activity of GLA Variants After No Challenge (NC) [1]: + (+ = 0.5 to 1.5 relative activity over WT GLA (SEQ ID NO: 5)) | Relative Activity of GLA Variants After Challenge at pH 4.3 [2]: +++ (+++ = >2.5 relative activity over WT GLA (SEQ ID NO: 5)) | Relative Activity of GLA Variants After Challenge at pH 7.0 [3]: ++ (++ = >1.5 to 2.5 relative activity over WT GLA (SEQ ID NO: 5))

B3: 20 (protein)
chain: LDNGLARTPTMGWLHWERFMCNLDCQEEPDSCISEKLFMEMAELMVSEGWKDAGYEYLCIDDCWMAPQRDSEGRLQADPQRFPHGIRQLANYVHSKGLKLGIYADVGNKTCAGFPGSFGYYDIDAQTFADWGVDLLKFDGCYCDSLENLADGYKHMSLALNRTGRSIVYSCEWPLYMWPFQKPNYTEIRQYCNHWRNFADIDDSWKSVKSILDWTSFNQERIVDVAGPGGWNDPDMLVIGNFGLSWDQQVTQMALWAIMAAPLFMSNDLRHISPQAKALLQDKDVIAINQDPLGKQGYRLRQGDNFEVWERPLSGLAWAVAMINRQEIGGPRSYTIAVASLGKGVACNPACFITQLLPVKRKLGFYEWTSRLKSHVNPTGTVLLQLENTMQMSLKDLLL
modifications: Synthetic Polypeptide sequence of Variant No. 20 of mature Human GLA
Relative Activity of GLA Variants After No Challenge (NC) [1]: + (+ = 0.5 to 1.5 relative activity over WT GLA (SEQ ID NO: 5)) | Relative Activity of GLA Variants After Challenge at pH 4.3 [2]: +++ (+++ = >2.5 relative activity over WT GLA (SEQ ID NO: 5)) | Relative Activity of GLA Variants After Challenge at pH 7.0 [3]: ++ (++ = >1.5 to 2.5 relative activity over WT GLA (SEQ ID NO: 5))

B4: 19 (protein)
chain: LDNGLARTPTMGWLHWERFMCNLDCQEEPDSCISEKLFMEMAELMVSEGWKDAGYEYLCIDDCWMAPQRDSEGRLQADPQRFPHGIRQLANYVHSKGLKLGIYADVGNKTCAGFPGSFGYYDIDAQTFADWGVDLLKFDGCYCDSLENLADGYKHMSLALNRTGRSIVYSCEWPLYMWPFQKPNYTEIRQYCNHWRNFADIDDSWKSVKSILDWTSFNQERIVDVAGPGGWNDPDMLVIGNFGLSWDQQVTQMALWAIMAAPLFMSNDLRHISPQAKALLQDKDVIAINQDPLGKQGYRLRKGDNFEVWERPLSGLAWAVAMINRQEIGGPRSYTIAVASLGKGVACNPACFITQLLPVKRKLGFYEWTSRLKSHVNPTGTVLLQLENTMQMSLKDLLL
modifications: Synthetic Polypeptide sequence of Variant No. 19 of mature Human GLA
Relative Activity of GLA Variants After No Challenge (NC) [1]: + (+ = 0.5 to 1.5 relative activity over WT GLA (SEQ ID NO: 5)) | Relative Activity of GLA Variants After Challenge at pH 4.3 [2]: ++ (++ = >1.5 to 2.5 relative activity over WT GLA (SEQ ID NO: 5)) | Relative Activity of GLA Variants After Challenge at pH 7.0 [3]: + (+ = 0.5 to 1.5 relative activity over WT GLA (SEQ ID NO: 5))

B5: 18 (protein)
chain: LDNGLARTPTMGWLHWERFMCNLDCQEEPDSCISEKLFMEMAELMVSEGWKDAGYEYLCIDDCWMAPQRDSEGRLQADPQRFPHGIRQLANYVHSKGLKLGIYADVGNKTCAGFPGSFGYYDIDAQTFADWGVDLLKFDGCYCDSLENLADGYKHMSLALNRTGRSIVYSCEWPLYMWPFQKPNYTEIRQYCNHWRNFADIDDSWKSIKSILDWTSSNQERIVDVAGPGGWNDPDMLVIGNFGLSWNQQVTQMALWAIMAAPLFMSNDLRHISPQAKALLQDKDVIAINQDPLGKQGYQLRQGDNFEVWERPLSGLAWAVAMINRQEIGGPRSYTIAVASLGKGVACNPACFITQLLPVKRKLGFYEWTSRLRSHINPTGTVLLQLENTMQMSLKDLLL
modifications: Synthetic Polypeptide sequence of Variant No. 18 of mature Human GLA
Relative Activity of GLA Variants After No Challenge (NC) [1]: + (+ = 0.5 to 1.5 relative activity over WT GLA (SEQ ID NO: 5)) | Relative Activity of GLA Variants After Challenge at pH 4.3 [2]: + (+ = 0.5 to 1.5 relative activity over WT GLA (SEQ ID NO: 5)) | Relative Activity of GLA Variants After Challenge at pH 7.0 [3]: ++ (++ = >1.5 to 2.5 relative activity over WT GLA (SEQ ID NO: 5))

B6: 17 (protein)
chain: LDNGLARTPTMGWLHWERFMCNLDCQEEPDSCISEKLFMEMAELMVSGGWKDAGYEYLCIDDCWMAPQRDSEGRLQADPQRFPHGIRQLANYVHSKGLKLGIYADVGNKTCAGFPGSFGYYDIDAQTFADWGVDLLKFDGCYCDSLENLADGYKHMSLALNRTGRSIVYSCEWPLYMWPFQKPNYTEIRQYCNHWRNFADIDDSWKSIKSILDWTSFNQERIVDVAGPGGWNDPDMLVIGNFGLSWNQQVTQMALWAIMAAPLFMSNDLRHISPQAKALLQDKDVIAINQDPLGKQGYQLRQGDNFEVWERPLSGLAWAVAMINRQEIGGPRSYTIAVASLGKGVACNPACFITQLLPVKRKLGFYEWTSRLKSHINPTGTVLLQLENTMQMSLKDLLL
modifications: Synthetic Polypeptide sequence of Variant No. 17 of mature Human GLA
Relative Activity of GLA Variants After No Challenge (NC) [1]: + (+ = 0.5 to 1.5 relative activity over WT GLA (SEQ ID NO: 5)) | Relative Activity of GLA Variants After Challenge at pH 4.3 [2]: + (+ = 0.5 to 1.5 relative activity over WT GLA (SEQ ID NO: 5)) | Relative Activity of GLA Variants After Challenge at pH 7.0 [3]: + (+ = 0.5 to 1.5 relative activity over WT GLA (SEQ ID NO: 5))
